Reference: publication PMC8241838, “Structural mechanism of laminin recognition by integrin” (Nature Communications, 2021)

Key:
[1] = target: α6β1 integrin on Expi293F cells, α6 R157A (human, UniProt P05556 21-798, Mn2+; A cytoplasmic form assumed); assay: flow cytometry on cells; Expi293F cells transiently expressing α6 (wild type or mutant) with β1, in HBS-BSA with 0.5 mM MnCl2, varying concentrations of sfGFP-tLM511, room temperature 2 h, no washing; non-transfected cells as baseline; settings: one partner purified
[2] = target: α6β1 integrin on Expi293F cells, α6 D153A (human, UniProt P05556 21-798, Mn2+; A cytoplasmic form assumed); assay: as above; settings: one partner purified
Chain of α6β1 integrin on Expi293F cells, α6 D153A (chain, as listed by the source D153A, chain 1 of 2): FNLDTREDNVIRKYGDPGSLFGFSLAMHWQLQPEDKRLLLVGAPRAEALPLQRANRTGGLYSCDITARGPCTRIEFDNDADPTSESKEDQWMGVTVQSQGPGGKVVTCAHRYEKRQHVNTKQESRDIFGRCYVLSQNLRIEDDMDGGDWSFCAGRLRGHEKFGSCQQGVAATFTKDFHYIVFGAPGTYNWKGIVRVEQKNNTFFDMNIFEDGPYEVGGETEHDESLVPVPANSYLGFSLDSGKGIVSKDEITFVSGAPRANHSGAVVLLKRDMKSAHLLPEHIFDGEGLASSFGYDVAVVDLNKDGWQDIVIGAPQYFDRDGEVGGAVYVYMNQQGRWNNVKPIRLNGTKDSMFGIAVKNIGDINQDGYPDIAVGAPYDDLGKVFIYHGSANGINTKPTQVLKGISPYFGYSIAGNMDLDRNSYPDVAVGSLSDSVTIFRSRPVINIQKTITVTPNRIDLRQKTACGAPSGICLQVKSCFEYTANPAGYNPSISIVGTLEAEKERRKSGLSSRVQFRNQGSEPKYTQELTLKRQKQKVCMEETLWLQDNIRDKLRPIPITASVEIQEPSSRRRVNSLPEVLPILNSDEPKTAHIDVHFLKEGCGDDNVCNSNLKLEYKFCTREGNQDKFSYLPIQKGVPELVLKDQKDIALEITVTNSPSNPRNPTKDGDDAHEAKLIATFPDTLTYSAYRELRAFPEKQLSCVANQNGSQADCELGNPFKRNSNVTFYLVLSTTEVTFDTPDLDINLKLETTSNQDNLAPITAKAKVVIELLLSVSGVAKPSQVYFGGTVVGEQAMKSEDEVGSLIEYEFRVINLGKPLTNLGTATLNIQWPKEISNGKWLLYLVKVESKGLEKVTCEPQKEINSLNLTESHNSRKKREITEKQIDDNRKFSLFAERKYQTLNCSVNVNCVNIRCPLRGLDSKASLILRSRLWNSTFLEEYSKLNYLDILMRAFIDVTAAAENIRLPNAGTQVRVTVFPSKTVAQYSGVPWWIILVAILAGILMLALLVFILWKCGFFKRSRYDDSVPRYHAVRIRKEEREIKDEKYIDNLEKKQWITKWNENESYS
Chain of α6β1 integrin on Expi293F cells, α6 D153A (P05556 21-798, chain 2 of 2): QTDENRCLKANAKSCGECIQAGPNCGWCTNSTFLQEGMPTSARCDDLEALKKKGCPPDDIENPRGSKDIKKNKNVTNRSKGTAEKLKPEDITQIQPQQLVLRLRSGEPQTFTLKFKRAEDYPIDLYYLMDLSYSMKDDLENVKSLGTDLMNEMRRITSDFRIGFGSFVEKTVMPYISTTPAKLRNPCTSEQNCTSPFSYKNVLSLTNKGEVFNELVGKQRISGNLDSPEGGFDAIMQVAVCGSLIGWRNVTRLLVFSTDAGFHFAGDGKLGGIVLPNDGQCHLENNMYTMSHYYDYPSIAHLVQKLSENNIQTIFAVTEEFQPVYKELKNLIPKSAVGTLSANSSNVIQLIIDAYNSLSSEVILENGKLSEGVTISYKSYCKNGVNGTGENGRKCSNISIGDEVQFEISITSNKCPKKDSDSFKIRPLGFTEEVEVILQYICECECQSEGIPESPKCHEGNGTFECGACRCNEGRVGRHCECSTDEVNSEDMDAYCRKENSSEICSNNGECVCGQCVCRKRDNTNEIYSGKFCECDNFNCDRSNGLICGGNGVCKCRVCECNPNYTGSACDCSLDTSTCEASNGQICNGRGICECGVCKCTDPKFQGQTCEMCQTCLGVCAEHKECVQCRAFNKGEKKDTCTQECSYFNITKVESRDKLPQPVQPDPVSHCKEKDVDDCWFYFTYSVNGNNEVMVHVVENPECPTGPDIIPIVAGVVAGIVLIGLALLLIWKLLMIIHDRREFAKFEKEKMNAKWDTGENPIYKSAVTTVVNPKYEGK

Chain of α6β1 integrin on Expi293F cells, α6 R157A (chain, as listed by the source R157A, chain 1 of 2): as the sequence (chain, as listed by the source D153A, chain 1 of 2) above, with A153D, R157A counted along it
Chain of α6β1 integrin on Expi293F cells, α6 R157A (P05556 21-798, chain 2 of 2): as the sequence (P05556 21-798, chain 2 of 2) above

fold increase in KD over the wild type [1]: 2.3 fold | fold increase in KD over the wild type [2]: 3.6 fold
B1: trimeric fusion protein PA-sfGFP-tLM511 (complex)
chain 1: ENVERWQGQYEGLRGQDLGQAVLDAGHSVSTLEKTLPQLLAKLSILENRGVHNASLALSASIGRVRELIAQARGAASKVKVPMKFNGRSGVQLRTPRDLADLAAYTALKFYLQGPEPEPGQGTEDRFVMYMGSRQATGDYMGVSLRDKKVHWVYQLGEAGPAVLSIDEDIGEQFAAVSLDRTLQFGHMSVTVERQMIQETKGDTVAPGAEGLLNLRPDDFVFYVGGYPSTFTPPPLLRFPGYRGCIEMDTLNEEVVSLYNFERTFQLDTAVDRPCARSKSTGDPWLTDGSYLDGTGFARISFDSQISTTKRFEQELRLVSYSGVLFFLKQQSQFLCLAVQEGSLVLLYDFGAGLKKAVPLQPPPPLTSASKAIQVFLLGGSRKRVLVRVERATVYSVEQDNDLELADAYYLGGVPPDQLPPSLRRLFPTGGSVRGCVKGIKALGKYVDLKRLNTTGVSAGCTADLLVGRAMTFHGHGFLRLALSNVAPLTGNVYSGFGFHSAQDSALLYYRASPDGLCQVSLQQGRVSLQLLRTEVKTQAGFADGAPHYVAFYSNATGVWLYVDDQLQQMKPHRGPPPELQPQPEGPPRLLLGGLPESGTIYNFSGCISNVFVQRLLGPQRVFDLQQNLGSVNVSTGCAPALQAQTPGLGPRGLQATARKASRRSRQPARHPA
chain 2: not shown
chain 3: DTVDLNKLNEIEGTLNKAKDEMKVSDLDRKVSDLENEAKKQEAAIMDYNRDIEEIMKDIRNLEDIRKTLPSGCFNTPSIEKP
notes: laminin α5 chain (tLMα5), human, residues E2655-A3327, numbered from the initiation Met; sfGFP inserted between the PA tag and tLMα5; laminin β1 chain (tLMβ1), human, residues D1714-L1786, numbered from the initiation Met; laminin γ1 chain (tLMγ1), human, residues D1528-P1609, numbered from the initiation Met; sfGFP gene: GenBank ASL68970.1; also called sfGFP-fused tLM511; fluorescent tLM511 …
